From article PMC5159498, “IQGAP1 Interaction with RHO Family Proteins Revisited” (The Journal of Biological Chemistry, 2016)
Where a chain is given by its changes, count along the chain named.

Assays:
Details in all cases: both partners purified
[1] = molecular target: T1, IQGAP1 GRD1-RGCT wild type (aa 877-1558) (human, UniProt P46940 877-1558); assay: stopped-flow fluorometry; tGppNHp (tamra-GppNHp)-bound CDC42 or CDC42 Q61L (0.2 μM) rapidly mixed with IQGAP1 variant (2-10 μM GRD1-CT for Q61L); Kd = koff/kon; 30 mM Tris-HCl pH 7.5, 10 mM KH2PO4/K2HPO4, 5 mM MgCl2, 3 mM DTT
T1 construct: human IQGAP1, GRD and RGCT domains, lacks the last 99 amino acids, aa 877-1558; also called GRD1-RGCT^WT; IQGAP1^877-1558
T1 sequence (looked up): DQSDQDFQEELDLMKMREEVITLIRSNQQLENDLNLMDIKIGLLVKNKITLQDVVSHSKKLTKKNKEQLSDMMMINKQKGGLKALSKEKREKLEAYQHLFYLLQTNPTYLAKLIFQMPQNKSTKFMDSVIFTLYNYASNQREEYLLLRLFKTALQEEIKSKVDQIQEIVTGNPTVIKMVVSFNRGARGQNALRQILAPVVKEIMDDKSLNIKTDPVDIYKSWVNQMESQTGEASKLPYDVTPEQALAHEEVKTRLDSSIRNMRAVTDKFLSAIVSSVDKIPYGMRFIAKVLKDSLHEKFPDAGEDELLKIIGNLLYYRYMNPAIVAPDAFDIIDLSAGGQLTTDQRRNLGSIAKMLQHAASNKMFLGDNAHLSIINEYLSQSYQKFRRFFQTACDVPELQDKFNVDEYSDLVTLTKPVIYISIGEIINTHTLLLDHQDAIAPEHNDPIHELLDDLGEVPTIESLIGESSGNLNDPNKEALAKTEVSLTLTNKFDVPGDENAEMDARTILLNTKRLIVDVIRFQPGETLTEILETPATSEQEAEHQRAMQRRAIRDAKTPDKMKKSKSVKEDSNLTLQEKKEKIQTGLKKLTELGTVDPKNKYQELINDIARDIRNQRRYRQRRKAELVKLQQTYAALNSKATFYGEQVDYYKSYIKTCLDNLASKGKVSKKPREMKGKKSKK

[2] = molecular target: T2, IQGAP1 GRD1-CT (aa 863-1657) (human, UniProt P46940 863-1657); assay: stopped-flow fluorometry; mGppNHp-bound RHO protein (0.2 μM) rapidly mixed with IQGAP1 variant (2 μM, or 2-12 μM for kon); koff by displacement with 10 μM non-fluorescent GppNHp-bound GTPase; Kd = koff/kon; 30 mM Tris-HCl pH 7.5, 10 mM KH2PO4/K2HPO4, 5 mM MgCl2, 3 mM DTT
T2 construct: human IQGAP1, GRD, RGCT and CT domains, aa 863-1657; The GST tag was cleaved 'if needed'; also called C-terminal half of IQGAP1; C-terminal 795 amino acids of IQGAP1
T2 sequence (looked up): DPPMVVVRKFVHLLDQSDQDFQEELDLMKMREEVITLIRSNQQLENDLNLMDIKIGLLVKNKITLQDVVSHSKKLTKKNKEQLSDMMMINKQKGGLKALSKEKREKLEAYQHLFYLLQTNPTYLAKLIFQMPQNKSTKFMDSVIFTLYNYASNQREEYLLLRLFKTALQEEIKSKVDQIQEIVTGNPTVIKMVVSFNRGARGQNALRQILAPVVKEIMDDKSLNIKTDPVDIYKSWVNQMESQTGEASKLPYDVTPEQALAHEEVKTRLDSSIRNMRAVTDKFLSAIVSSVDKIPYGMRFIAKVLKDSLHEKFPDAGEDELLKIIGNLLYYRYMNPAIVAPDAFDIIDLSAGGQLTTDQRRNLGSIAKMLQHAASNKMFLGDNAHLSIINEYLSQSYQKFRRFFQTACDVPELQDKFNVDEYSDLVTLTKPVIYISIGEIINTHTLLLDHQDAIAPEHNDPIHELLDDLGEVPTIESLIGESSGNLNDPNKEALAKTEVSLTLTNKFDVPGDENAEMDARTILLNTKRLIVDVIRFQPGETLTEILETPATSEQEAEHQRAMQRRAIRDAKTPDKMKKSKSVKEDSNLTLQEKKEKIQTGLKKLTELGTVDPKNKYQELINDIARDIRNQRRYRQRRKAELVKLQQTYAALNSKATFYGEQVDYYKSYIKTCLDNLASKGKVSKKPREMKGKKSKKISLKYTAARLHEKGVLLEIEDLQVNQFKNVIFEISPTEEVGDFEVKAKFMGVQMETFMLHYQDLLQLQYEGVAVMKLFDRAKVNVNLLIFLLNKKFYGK

[3] = molecular target: T3, IQGAP1 GRD1-RGCT S1441E (aa 877-1558) (human, UniProt P46940 877-1558, S1441E); assay: as above
T3 construct: human IQGAP1 aa 877-1558 with the phosphomimetic mutation S1441E, from the vector pET46 EkLIC; source: E. coli (pLysS BL21(DE3), CodonPlusRIL or BL21(Rosetta)), purified (Ni-NTA, gel filtration)
T3 sequence (looked up): T1 sequence (looked up) with S565E

B1: CDC42 (aa 1-178) (domain or fragment)
chain: not shown
notes: human CDC42, C-terminally truncated, aa 1-178; Loaded non-covalently with mGppNHp, tGppNHp, mGDP or non-fluorescent GppNHp; the nucleotide is named in the format of each assay; also called CDC42^WT; CDC42-mGppNHp
Kd [1]: 1450 nM
Kd [2]: 300 nM
Kd [3]: 2050 nM
